Residue numbers refer to the chain shown, from its start.
B1: NRC3_wobSeed114_DR4_A8G_o1 (dsDNA)
DNA 1: GCAATACGGGGTCATCGTAGGCCAGAGTACGCACAGGCGATTGACAGCGTAGAATGAAGG
DNA 2: CCTTCATTCTACGCTGTCAATCGCCTGTGCGTACTCTGGCCTACGATGACCCCGTATTGC
B2: NRC3_wobSeed121_DR5_C30T_o1 (dsDNA)
DNA 1: GCCAAACTAGGTCACCGGAAGGTCAAAGTTCGCATGGCGATTGACAGCGTAGAATGAAGG
DNA 2: CCTTCATTCTACGCTGTCAATCGCCATGCGAACTTTGACCTTCCGGTGACCTAGTTTGGC
B3: NRC3_wobSeed27_DR1_A12G_o1 (dsDNA)
DNA 1: GCACTCGGAGGGCAAAGGTCAGAGCTACGCCAGTGAGCGATTGACAGCGTAGAATGAAGG
DNA 2: CCTTCATTCTACGCTGTCAATCGCTCACTGGCGTAGCTCTGACCTTTGCCCTCCGAGTGC
B4: NRC3_wobSeed97_DR4_T8A_o1 (dsDNA)
DNA 1: GCCAAACAAGGTCACGAAAGGTCAAAGTCGAATGACGCGATTGACAGCGTAGAATGAAGG
DNA 2: CCTTCATTCTACGCTGTCAATCGCGTCATTCGACTTTGACCTTTCGTGACCTTGTTTGGC
B5: NRC3_wobSeed97_DR4_T8G_o1 (dsDNA)
DNA 1: B4 DNA 1 with A8G
DNA 2: B4 DNA 2 with T53C
B6: NRC3_wobSeed31_DR1_A13C_o1 (dsDNA)
DNA 1: GCTCATATAGGTCAAAGGTGAAAGTCGGTGTGGTAAGCGATTGACAGCGTAGAATGAAGG
DNA 2: CCTTCATTCTACGCTGTCAATCGCTTACCACACCGACTTTCACCTTTGACCTATATGAGC
B7: NRC3_wobSeed31_DR1_G20C_o1 (dsDNA)
DNA 1: B6 DNA 1 with C13A, G20C
DNA 2: B6 DNA 2 with C41G, G48T
B8: NRC3_wobSeed38_DR1_T16G_o1 (dsDNA)
DNA 1: GCCCTGCTAGGTCAAGGGTCAGCTAAAGCAGCTCGCGCGATTGACAGCGTAGAATGAAGG
DNA 2: CCTTCATTCTACGCTGTCAATCGCGCGAGCTGCTTTAGCTGACCCTTGACCTAGCAGGGC
B9: NRC3_wobSeed73_DR3_T8A_o1 (dsDNA)
DNA 1: GCCAAACAAGGTCACAGAGGTCAAAGTCCGTGCGTAGCGATTGACAGCGTAGAATGAAGG
DNA 2: CCTTCATTCTACGCTGTCAATCGCTACGCACGGACTTTGACCTCTGTGACCTTGTTTGGC

Key:
FXR:RXRa = FXR:RXRa (Homo sapiens, UniProt Q96RI1;P19793 full;full); experiment: no ligand; PBM; 270 nM : 90 nM RXRa; PBS pH 7.4, 2% milk, 0.02% Triton X-100, 1 mM DTT, BSA, 0.4 mg/ml salmon testes DNA; details: tags: His kept;His cleaved; copies: 1;1; label: surface-attached array probe
Sequence of FXR:RXRa (Q96RI1 whole entry, chain 1 of 2): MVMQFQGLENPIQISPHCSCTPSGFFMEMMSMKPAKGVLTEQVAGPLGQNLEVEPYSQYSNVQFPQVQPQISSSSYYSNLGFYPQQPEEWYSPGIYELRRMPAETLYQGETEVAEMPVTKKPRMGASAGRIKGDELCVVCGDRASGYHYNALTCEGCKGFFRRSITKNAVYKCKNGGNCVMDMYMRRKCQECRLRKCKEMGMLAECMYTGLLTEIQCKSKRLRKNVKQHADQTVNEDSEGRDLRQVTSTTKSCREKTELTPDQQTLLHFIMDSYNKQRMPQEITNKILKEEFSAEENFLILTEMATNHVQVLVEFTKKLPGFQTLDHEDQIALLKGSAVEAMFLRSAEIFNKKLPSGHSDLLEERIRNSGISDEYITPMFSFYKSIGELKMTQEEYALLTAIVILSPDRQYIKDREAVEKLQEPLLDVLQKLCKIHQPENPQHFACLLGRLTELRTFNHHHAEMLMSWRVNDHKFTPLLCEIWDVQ
Sequence of FXR:RXRa (P19793 whole entry, chain 2 of 2): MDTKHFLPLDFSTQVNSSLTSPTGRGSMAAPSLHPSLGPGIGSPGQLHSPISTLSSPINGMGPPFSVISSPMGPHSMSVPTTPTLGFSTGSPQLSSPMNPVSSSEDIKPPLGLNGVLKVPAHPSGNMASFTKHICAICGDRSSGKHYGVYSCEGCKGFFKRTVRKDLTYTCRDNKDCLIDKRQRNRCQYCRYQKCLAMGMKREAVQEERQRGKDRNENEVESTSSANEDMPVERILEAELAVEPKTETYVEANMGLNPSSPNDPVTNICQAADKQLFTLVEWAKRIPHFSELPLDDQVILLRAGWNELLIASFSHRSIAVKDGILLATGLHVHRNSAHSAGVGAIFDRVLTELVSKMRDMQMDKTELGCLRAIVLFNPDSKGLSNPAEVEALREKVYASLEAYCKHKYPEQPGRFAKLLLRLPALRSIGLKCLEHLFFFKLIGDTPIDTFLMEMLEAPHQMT
Procedure, shortened: (§1)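 The probes on custom Agilent 4×180K protein-binding microarrays were double-stranded, with 34-nt variable regions bearing direct-repeat seeds, single-nucleotide variants, half-site ablations and random human genomic background sequences. Incubation lasted 1 h with ligand-free nuclear receptor dimers in PBS pH 7.4, 2% milk, 0.02% Triton X-100, 1 mM DTT, 0.2 mg/mL BSA and 0.4 mg/ml salmon testes DNA. Antibodies against each partner (one per run) detected bound dimers, and fluorescence scans were regression-normalized. Binding z-scores take the random background probes as reference.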

RARa:RXRa = RARa:RXRa (Homo sapiens, UniProt P10276;P19793 full;full); experiment: as above; details: tags: His kept;His cleaved; copies: 1;1; label: surface-attached array probe
Procedure, shortened: as §1

PPARa:RXRa = PPARa:RXRa (Homo sapiens, UniProt Q07869;P19793 full;full); experiment: as above; details: tags: GST kept;His cleaved; copies: 1;1; label: surface-attached array probe
Sequence of PPARa:RXRa (Q07869 whole entry, chain 1 of 2): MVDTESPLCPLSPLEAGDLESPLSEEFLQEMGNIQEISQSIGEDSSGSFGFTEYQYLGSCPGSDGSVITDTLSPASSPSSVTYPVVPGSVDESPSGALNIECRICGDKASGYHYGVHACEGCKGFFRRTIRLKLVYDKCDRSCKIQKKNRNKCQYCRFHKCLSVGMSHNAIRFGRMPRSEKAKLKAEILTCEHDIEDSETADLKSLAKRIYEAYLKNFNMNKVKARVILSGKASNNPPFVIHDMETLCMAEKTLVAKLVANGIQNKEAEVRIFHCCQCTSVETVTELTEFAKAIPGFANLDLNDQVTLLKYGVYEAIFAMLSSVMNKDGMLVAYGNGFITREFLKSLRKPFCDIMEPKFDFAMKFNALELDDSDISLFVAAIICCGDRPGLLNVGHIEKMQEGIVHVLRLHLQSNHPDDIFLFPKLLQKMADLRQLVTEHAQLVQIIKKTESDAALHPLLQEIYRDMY
Sequence of PPARa:RXRa (P19793 whole entry, chain 2 of 2): as the sequence (P19793 whole entry, chain 2 of 2) above
Procedure, shortened: as §1

LXRa:RXRa = LXRa:RXRa (Homo sapiens, UniProt Q13133;P19793 full;full); experiment: as above; details: tags: His kept;His cleaved; copies: 1;1; label: surface-attached array probe
Procedure, shortened: as §1

LXRb:RXRa = LXRb:RXRa (Homo sapiens, UniProt P55055;P19793 full;full); experiment: as above; details: tags: His kept;His cleaved; copies: 1;1; label: surface-attached array probe
Sequence of LXRb:RXRa (P55055 whole entry, chain 1 of 2): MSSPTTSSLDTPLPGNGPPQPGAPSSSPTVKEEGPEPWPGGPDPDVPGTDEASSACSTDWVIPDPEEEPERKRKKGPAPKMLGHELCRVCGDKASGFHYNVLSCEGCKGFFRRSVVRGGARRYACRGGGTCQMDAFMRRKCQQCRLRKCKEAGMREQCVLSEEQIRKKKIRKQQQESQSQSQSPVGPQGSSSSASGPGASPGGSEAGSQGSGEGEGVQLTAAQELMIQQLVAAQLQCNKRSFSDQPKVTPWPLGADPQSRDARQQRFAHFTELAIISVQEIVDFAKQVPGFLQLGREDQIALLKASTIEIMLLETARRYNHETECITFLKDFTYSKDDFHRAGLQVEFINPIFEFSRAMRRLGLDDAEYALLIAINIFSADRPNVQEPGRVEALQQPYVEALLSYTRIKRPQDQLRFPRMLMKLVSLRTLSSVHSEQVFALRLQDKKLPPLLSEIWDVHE
Sequence of LXRb:RXRa (P19793 whole entry, chain 2 of 2): as the sequence (P19793 whole entry, chain 2 of 2) above
Procedure, shortened: as §1

RARg:RXRa = RARg:RXRa (Homo sapiens, UniProt P13631;P19793 full;full); experiment: as above; details: tags: His kept;His cleaved; copies: 1;1; label: surface-attached array probe
Procedure, shortened: as §1

VDR:RXRa = VDR:RXRa (Homo sapiens, UniProt P11473;P19793 full;full); experiment: as above; details: tags: His kept;His cleaved; copies: 1;1; label: surface-attached array probe
Sequence of VDR:RXRa (P11473 whole entry, chain 1 of 2): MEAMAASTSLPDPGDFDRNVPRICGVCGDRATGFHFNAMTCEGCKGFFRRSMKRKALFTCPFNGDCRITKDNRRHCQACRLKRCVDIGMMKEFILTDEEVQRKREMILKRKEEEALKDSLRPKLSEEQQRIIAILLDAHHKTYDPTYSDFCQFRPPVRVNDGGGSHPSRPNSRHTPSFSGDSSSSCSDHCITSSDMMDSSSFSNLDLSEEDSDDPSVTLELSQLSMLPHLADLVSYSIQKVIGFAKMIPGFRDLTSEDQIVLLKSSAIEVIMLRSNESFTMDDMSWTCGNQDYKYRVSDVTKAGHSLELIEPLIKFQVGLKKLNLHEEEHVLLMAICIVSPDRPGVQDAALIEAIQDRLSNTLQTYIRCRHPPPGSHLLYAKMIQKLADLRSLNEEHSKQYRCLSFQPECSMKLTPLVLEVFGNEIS
Sequence of VDR:RXRa (P19793 whole entry, chain 2 of 2): as the sequence (P19793 whole entry, chain 2 of 2) above
Procedure, shortened: as §1

PXR:RXRa = PXR:RXRa (Homo sapiens, UniProt O75469;P19793 full;full); experiment: as above; details: tags: His kept;His cleaved; copies: 1;1; label: surface-attached array probe
Sequence of PXR:RXRa (O75469 whole entry, chain 1 of 2): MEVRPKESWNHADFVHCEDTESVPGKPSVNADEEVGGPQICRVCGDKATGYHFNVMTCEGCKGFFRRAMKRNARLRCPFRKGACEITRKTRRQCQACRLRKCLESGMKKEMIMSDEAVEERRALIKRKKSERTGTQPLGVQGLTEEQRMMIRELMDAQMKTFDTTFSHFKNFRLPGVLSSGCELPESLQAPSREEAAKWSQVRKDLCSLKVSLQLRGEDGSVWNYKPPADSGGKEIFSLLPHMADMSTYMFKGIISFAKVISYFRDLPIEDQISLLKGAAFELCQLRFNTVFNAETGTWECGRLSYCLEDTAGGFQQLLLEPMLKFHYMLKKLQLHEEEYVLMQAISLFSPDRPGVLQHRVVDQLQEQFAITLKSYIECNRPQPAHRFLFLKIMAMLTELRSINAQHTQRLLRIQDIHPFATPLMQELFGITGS
Sequence of PXR:RXRa (P19793 whole entry, chain 2 of 2): as the sequence (P19793 whole entry, chain 2 of 2) above
Procedure, shortened: as §1

RXRa = RXRa (Homo sapiens, UniProt P19793); experiment: no ligand; PBM; 180 nM; PBS pH 7.4, 2% milk, 0.02% Triton X-100, 1 mM DTT, BSA, 0.4 mg/ml salmon testes DNA; details: tags: His cleaved; chain copies: 2; label: surface-attached array probe
PPARg:RXRa = PPARg:RXRa (Homo sapiens, UniProt P37231;P19793 full;full); experiment: no ligand; PBM; 180 nM : 90 nM RXRa; PBS pH 7.4, 2% milk, 0.02% Triton X-100, 1 mM DTT, BSA, 0.4 mg/ml salmon testes DNA; details: tags: His kept;His cleaved; copies: 1;1; label: surface-attached array probe
RARb:RXRa = RARb:RXRa (Homo sapiens, UniProt P10826;P19793 full;full); experiment: no ligand; PBM; 270 nM : 90 nM RXRa; PBS pH 7.4, 2% milk, 0.02% Triton X-100, 1 mM DTT, BSA, 0.4 mg/ml salmon testes DNA; details: tags: His kept;His cleaved; copies: 1;1; label: surface-attached array probe
Procedure, shortened: as §1

Binder | binding signal (FXR:RXRa) | binding signal (RARa:RXRa) | binding signal (PPARa:RXRa) | binding signal (LXRa:RXRa) | binding signal (LXRb:RXRa) | binding signal (RARg:RXRa) | binding signal (VDR:RXRa) | binding signal (PXR:RXRa) | binding signal (RXRa) | binding signal (PPARg:RXRa) | binding signal (RARb:RXRa)
B1 | 8.6 PBM z-score against 500 random probes | 7.2 PBM z-score against 500 random probes | 6.87 PBM z-score against 500 random probes | 7.63 PBM z-score against 500 random probes | 6.75 PBM z-score against 500 random probes | 7.44 PBM z-score against 500 random probes | 7.09 PBM z-score against 500 random probes | 6.64 PBM z-score against 500 random probes | 9.29 PBM z-score against 500 random probes |  | 
B2 |  | 8.54 PBM z-score against 500 random probes |  |  |  |  |  |  | 8.07 PBM z-score against 500 random probes | 10.6 PBM z-score against 500 random probes | 
B3 |  | 7.48 PBM z-score against 500 random probes |  |  |  |  |  |  | 8.52 PBM z-score against 500 random probes | 9.6 PBM z-score against 500 random probes | 
B4 | 8.87 PBM z-score against 500 random probes | 8.72 PBM z-score against 500 random probes | 7 PBM z-score against 500 random probes | 8.85 PBM z-score against 500 random probes | 8.12 PBM z-score against 500 random probes | 8.87 PBM z-score against 500 random probes | 7.94 PBM z-score against 500 random probes | 7.87 PBM z-score against 500 random probes | 9.58 PBM z-score against 500 random probes |  | 6.14 PBM z-score against 500 random probes
B5 | 9.24 PBM z-score against 500 random probes | 8.33 PBM z-score against 500 random probes | 6.96 PBM z-score against 500 random probes | 8.87 PBM z-score against 500 random probes | 7.93 PBM z-score against 500 random probes | 8.98 PBM z-score against 500 random probes | 7.51 PBM z-score against 500 random probes | 7.9 PBM z-score against 500 random probes | 9.84 PBM z-score against 500 random probes |  | 6.03 PBM z-score against 500 random probes
B6 |  | 7.84 PBM z-score against 500 random probes | 6.9 PBM z-score against 500 random probes |  |  |  |  |  | 8.68 PBM z-score against 500 random probes | 11.9 PBM z-score against 500 random probes | 
B7 |  | 7.77 PBM z-score against 500 random probes | 6.94 PBM z-score against 500 random probes |  |  |  |  |  | 8.7 PBM z-score against 500 random probes | 11.8 PBM z-score against 500 random probes | 
B8 |  | 7.26 PBM z-score against 500 random probes |  |  |  |  |  |  |  | 10.5 PBM z-score against 500 random probes | 
B9 | 8.84 PBM z-score against 500 random probes | 8.63 PBM z-score against 500 random probes | 6.92 PBM z-score against 500 random probes | 7.79 PBM z-score against 500 random probes | 7.37 PBM z-score against 500 random probes | 8.47 PBM z-score against 500 random probes | 8.7 PBM z-score against 500 random probes | 7.48 PBM z-score against 500 random probes | 10.1 PBM z-score against 500 random probes |  | 6.08 PBM z-score against 500 random probes

From article PMC6555819, “Comprehensive study of nuclear receptor DNA binding provides a revised framework for understanding receptor specificity”
